Data from the supplement of paper PMC7125110.
± gives the standard error. For part of these data: This sample holds only a part of the variants without activity.

B1: glmS ribozyme (parent)
chain: AUAAAAGCGCCAGAACUACAGAAAUGUAGUUGACGAGGAGGAGGUUUAUCGAAUUUUCGGCGGAUGCCUCCAAA

Assays:
Details in all cases: with glucosamine-6-phosphate
glucosamine-6-phosphate [1] = variants of: B1; test: kcat; higher = faster cleavage; RNA array
In short: (§1)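 kcat and KM were obtained from weighted Michaelis–Menten fits across concentrations of kobs values. Those came from one- or two-exponential decay fits to per-tile medians normalised to baseline and to non-cleaving reference variants. The variants were barcoded ribozymes transcribed in situ by E. coli RNA polymerase on sequenced MiSeq chips and tracked through a hybridised Cy3 probe at 37 °C, with 40 μM to 10 mM glucosamine-6-phosphate in HEPES/KCl/Mg(OAc)2 buffer flowed in.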

glucosamine-6-phosphate [2] = variants of: B1; test: KM; higher = weaker cofactor use; RNA array
In short: as §1

glucosamine-6-phosphate [3] = variants of: B1; test: self-cleavage kobs at 40 uM GlcN6P; higher = faster cleavage; RNA array
In short: as §1

glucosamine-6-phosphate [4] = variants of: B1; test: self-cleavage kobs at 160 uM GlcN6P; higher = faster cleavage; RNA array
In short: as §1

glucosamine-6-phosphate [5] = variants of: B1; test: self-cleavage kobs at 640 uM GlcN6P; higher = faster cleavage; RNA array
In short: as §1

glucosamine-6-phosphate [6] = variants of: B1; test: self-cleavage kobs at 2500 uM GlcN6P; higher = faster cleavage; RNA array
In short: as §1

glucosamine-6-phosphate [7] = variants of: B1; test: self-cleavage kobs at 10000 uM GlcN6P; higher = faster cleavage; RNA array
In short: as §1

In the case of AUAAAAGCGCCAGAGCUACAGAAAUGUAGUUGACGAGGAGGAGGUUUAUCGAAUUUUCGGUGGAUGCCUCCAAA, the kcat (glucosamine-6-phosphate [1]) is reported as 1.94e-05 ± 1e-06 s⁻¹ and the KM (glucosamine-6-phosphate [2]) is reported as 631 ± 280 µM.

With AUAAAAGCGCCAGAACUACAGAAAUGUAGUUAACGAGGAGGAGGUUUAUCGAAUUUUCGGCGGAUGCCUCUAAA the kcat (glucosamine-6-phosphate [1]) was 0.00395 ± 0.001 s⁻¹, the KM (glucosamine-6-phosphate [2]) was 4470 ± 1500 µM and the “self-cleavage kobs at 40 uM GlcN6P” value (glucosamine-6-phosphate [3]) was 3.68e-05 ± 5.2e-06 s⁻¹. For the same variant, the “self-cleavage kobs at 160 uM GlcN6P” value (glucosamine-6-phosphate [4]) was 0.000159 ± 1.6e-05 s⁻¹, the “self-cleavage kobs at 640 uM GlcN6P” value (glucosamine-6-phosphate [5]) was 0.000487 ± 4.1e-05 s⁻¹ and the “self-cleavage kobs at 2500 uM GlcN6P” value (glucosamine-6-phosphate [6]) was 0.00122 ± 0.00011 s⁻¹. For the same variant, the “self-cleavage kobs at 10000 uM GlcN6P” value (glucosamine-6-phosphate [7]) was 0.00326 ± 0.00033 s⁻¹.

AUAAAAGCGCCAGAACUACAGAAAUGUAGUUGACGAGGAGGAGGUUUAUCAAAUUUUCGGCAGAUGCCUCCAAA was tested, and the kcat (glucosamine-6-phosphate [1]) was under 1e-05 s⁻¹ and the “self-cleavage kobs at 40 uM GlcN6P” value (glucosamine-6-phosphate [3]) was under 1e-05 s⁻¹.

For AUAAAAUCGCCAGAACUACAGAAAUGUAGUUGACGAGGAGGAGGUUUAUCGGAUUUUCGGCGGAUGCCUGCAAA, the kcat (glucosamine-6-phosphate [1]) was 3.01e-05 ± 9.2e-06 s⁻¹.

In the case of AUAAAAGCGCCAUAACUACAGAAAUGUAGUUGACGAGGAGGAGGUUUAUCGAAUUUUCGGCGGAUGCCACCAAA, the kcat (glucosamine-6-phosphate [1]) is reported as 4.51e-05 ± 1.2e-05 s⁻¹, the “self-cleavage kobs at 2500 uM GlcN6P” value (glucosamine-6-phosphate [6]) is reported as 6.1e-05 ± 1.3e-05 s⁻¹ and the “self-cleavage kobs at 10000 uM GlcN6P” value (glucosamine-6-phosphate [7]) is reported as 3.28e-05 ± 1.1e-05 s⁻¹.

AUAAAAGCGCCACAACUACAGAAAUGUAGUUGACGAGGAGGAGGUUUAUCGAAUUUUCGGCGGAUGGCUCCAAA was tested, and the kcat (glucosamine-6-phosphate [1]) was 1.33e-05 ± 8.3e-07 s⁻¹ and the KM (glucosamine-6-phosphate [2]) was 189 ± 76 µM.

In the case of AUAAAAGCGCCAGAACUACAGAAAUGUAGGUGACGAGGAGGAGGUUUAUCGAAUUUUCGGCGGAUGCCUGCAAA, the kcat (glucosamine-6-phosphate [1]) is reported as 0.000136 ± 7.2e-06 s⁻¹, the KM (glucosamine-6-phosphate [2]) is reported as 439 ± 110 µM and the “self-cleavage kobs at 640 uM GlcN6P” value (glucosamine-6-phosphate [5]) is reported as 9.18e-05 ± 2.2e-05 s⁻¹. For the same variant, the “self-cleavage kobs at 2500 uM GlcN6P” value (glucosamine-6-phosphate [6]) was 0.000124 ± 2.3e-05 s⁻¹ and the “self-cleavage kobs at 10000 uM GlcN6P” value (glucosamine-6-phosphate [7]) was 0.000127 ± 1.4e-05 s⁻¹.

In the case of AUAAACGCGCCAGAACUACAGAAAUGUAGUUGACGAGGAGGAGGUUUAUCGAAUUUUCGGCGGAUGCCACCAAA, the kcat (glucosamine-6-phosphate [1]) is reported as 2.1e-05 ± 3.8e-06 s⁻¹.

AUAAAAGCGCCAGAACUACAGAAAUGUAGUGGACGAGGAGGAGGUAUAUCGAAUUUUCGGCGGAUGCCUCCAAA was tested, and the kcat (glucosamine-6-phosphate [1]) was 0.000771 ± 0.00021 s⁻¹, the “self-cleavage kobs at 160 uM GlcN6P” value (glucosamine-6-phosphate [4]) was 0.000124 ± 3.6e-05 s⁻¹ and the “self-cleavage kobs at 640 uM GlcN6P” value (glucosamine-6-phosphate [5]) was 0.000258 ± 6.7e-05 s⁻¹. The “self-cleavage kobs at 2500 uM GlcN6P” value (glucosamine-6-phosphate [6]) was 0.000954 ± 0.00016 s⁻¹ and the “self-cleavage kobs at 10000 uM GlcN6P” value (glucosamine-6-phosphate [7]) was 0.000614 ± 0.0001 s⁻¹.

In the case of AUAAAAGCGUCAGAACUACAGAAAUGUAGUUGACGAGGAGGAGGUUUAUCGAAUUUUCGGUGAAUGCCUCCAAA, the kcat (glucosamine-6-phosphate [1]) is reported as under 1e-05 s⁻¹ and the “self-cleavage kobs at 10000 uM GlcN6P” value (glucosamine-6-phosphate [7]) is reported as under 1e-05 s⁻¹.

For AUAAAAGCGCCAGAACUACAGAAAUGUAGAUGACGAAGAGGAGGUUUAUCGAAUUUUCGGCGGAUGCCUCCAAA, the kcat (glucosamine-6-phosphate [1]) was 0.000308 ± 0.00011 s⁻¹, the “self-cleavage kobs at 160 uM GlcN6P” value (glucosamine-6-phosphate [4]) was 3.75e-05 ± 1.2e-05 s⁻¹ and the “self-cleavage kobs at 640 uM GlcN6P” value (glucosamine-6-phosphate [5]) was 6.25e-05 ± 1.2e-05 s⁻¹. For the same variant, the “self-cleavage kobs at 2500 uM GlcN6P” value (glucosamine-6-phosphate [6]) was 0.000141 ± 2.9e-05 s⁻¹ and the “self-cleavage kobs at 10000 uM GlcN6P” value (glucosamine-6-phosphate [7]) was 0.000302 ± 7.7e-05 s⁻¹.

AUAAAAGCGCCAGAACUACAGAAAUGUAGUUGACGUGGAGGAGGUUUAUCGAAUUUUCGGCGGAUGCCUCUAAA was tested, and the kcat (glucosamine-6-phosphate [1]) was under 1e-05 s⁻¹ and the “self-cleavage kobs at 640 uM GlcN6P” value (glucosamine-6-phosphate [5]) was under 1e-05 s⁻¹.

With AUAAAAGCGCCAGACCUACAGAAAUGUAGUUUACGAGGAGGAGGUUUAUCGAAUUUUCGGCGGAUGCCUCCAAA the kcat (glucosamine-6-phosphate [1]) was 0.00121 ± 6.6e-05 s⁻¹, the KM (glucosamine-6-phosphate [2]) was 6690 ± 540 µM and the “self-cleavage kobs at 640 uM GlcN6P” value (glucosamine-6-phosphate [5]) was 0.000107 ± 1.4e-05 s⁻¹. For the same variant, the “self-cleavage kobs at 2500 uM GlcN6P” value (glucosamine-6-phosphate [6]) was 0.000321 ± 4.8e-05 s⁻¹ and the “self-cleavage kobs at 10000 uM GlcN6P” value (glucosamine-6-phosphate [7]) was 0.000731 ± 7.6e-05 s⁻¹.

With AUAAAAGCGCCAGAACUACAGAAAUGUAUUUGACGAGGAGGAGGUUUAUCGAAUUUUCGGCGGAUUCCUCCAAA the kcat (glucosamine-6-phosphate [1]) was 0.000182 ± 1.7e-05 s⁻¹, the KM (glucosamine-6-phosphate [2]) was 1300 ± 360 µM and the “self-cleavage kobs at 640 uM GlcN6P” value (glucosamine-6-phosphate [5]) was 5.65e-05 ± 1.1e-05 s⁻¹. The “self-cleavage kobs at 2500 uM GlcN6P” value (glucosamine-6-phosphate [6]) was 0.000151 ± 2.6e-05 s⁻¹ and the “self-cleavage kobs at 10000 uM GlcN6P” value (glucosamine-6-phosphate [7]) was 0.000156 ± 1.6e-05 s⁻¹.

AUAAAAGCGCAAGAACUACAGAAAUGUAGUUGACGAGGAGGAGGUUUAUCGAAUUAUCGGCGGAUGCCUCCAAA was tested, and the kcat (glucosamine-6-phosphate [1]) was 0.000143 ± 1.9e-06 s⁻¹, the KM (glucosamine-6-phosphate [2]) was 2090 ± 78 µM and the “self-cleavage kobs at 640 uM GlcN6P” value (glucosamine-6-phosphate [5]) was 3.27e-05 ± 1e-05 s⁻¹. For the same variant, the “self-cleavage kobs at 2500 uM GlcN6P” value (glucosamine-6-phosphate [6]) was 7.89e-05 ± 1.5e-05 s⁻¹ and the “self-cleavage kobs at 10000 uM GlcN6P” value (glucosamine-6-phosphate [7]) was 0.000118 ± 1.3e-05 s⁻¹.

In the case of AUAAAAGCGCCAGAACUACAGAAAUGUAGUUGACGAGGAGGAGGUGUAUCGAGUUUUCGGCGGAUGCCUCCAAA, the kcat (glucosamine-6-phosphate [1]) is reported as 0.00499 ± 0.0025 s⁻¹, the “self-cleavage kobs at 40 uM GlcN6P” value (glucosamine-6-phosphate [3]) is reported as 0.000271 ± 7.8e-05 s⁻¹ and the “self-cleavage kobs at 160 uM GlcN6P” value (glucosamine-6-phosphate [4]) is reported as 0.000482 ± 0.00011 s⁻¹. The “self-cleavage kobs at 640 uM GlcN6P” value (glucosamine-6-phosphate [5]) was 0.00165 ± 0.00049 s⁻¹, the “self-cleavage kobs at 2500 uM GlcN6P” value (glucosamine-6-phosphate [6]) was 0.00267 ± 0.00089 s⁻¹ and the “self-cleavage kobs at 10000 uM GlcN6P” value (glucosamine-6-phosphate [7]) was 0.00811 ± 0.0028 s⁻¹.

For AUAAAAGCGCCAGAACUACAGAAAUGUAGUUGACGAGGAGGAGGUUGAUCGAAUUUUCGGCGGAGGCCUCCAAA, the kcat (glucosamine-6-phosphate [1]) was 0.00249 ± 0.00033 s⁻¹, the KM (glucosamine-6-phosphate [2]) was 2760 ± 530 µM and the “self-cleavage kobs at 40 uM GlcN6P” value (glucosamine-6-phosphate [3]) was 3.08e-05 ± 1.1e-05 s⁻¹. The “self-cleavage kobs at 160 uM GlcN6P” value (glucosamine-6-phosphate [4]) was 0.000153 ± 2e-05 s⁻¹, the “self-cleavage kobs at 640 uM GlcN6P” value (glucosamine-6-phosphate [5]) was 0.000451 ± 7e-05 s⁻¹ and the “self-cleavage kobs at 2500 uM GlcN6P” value (glucosamine-6-phosphate [6]) was 0.00107 ± 0.00015 s⁻¹. For the same variant, the “self-cleavage kobs at 10000 uM GlcN6P” value (glucosamine-6-phosphate [7]) was 0.0021 ± 0.00028 s⁻¹.

For AUAAAGGCGCCAGAACUACAGAAAUGUAGUUGACGAGGUGGAGGUUUAUCGAAUUUUCGGCGGAUGCCUCCAAA, the kcat (glucosamine-6-phosphate [1]) was 0.000276 ± 7.5e-06 s⁻¹, the KM (glucosamine-6-phosphate [2]) was 1490 ± 84 µM and the “self-cleavage kobs at 160 uM GlcN6P” value (glucosamine-6-phosphate [4]) was 2.95e-05 ± 1.1e-05 s⁻¹. For the same variant, the “self-cleavage kobs at 640 uM GlcN6P” value (glucosamine-6-phosphate [5]) was 8.14e-05 ± 1.2e-05 s⁻¹, the “self-cleavage kobs at 2500 uM GlcN6P” value (glucosamine-6-phosphate [6]) was 0.000176 ± 2.3e-05 s⁻¹ and the “self-cleavage kobs at 10000 uM GlcN6P” value (glucosamine-6-phosphate [7]) was 0.000239 ± 3.2e-05 s⁻¹.

In the case of AUAAAAGCGCCAGAACUACAGAAAUGUAGUUGACGAGGAGGAGGUUUGUCGAAUUUUCGGUGGAUGCCUCCAAA, the kcat (glucosamine-6-phosphate [1]) is reported as 3e-05 ± 9.3e-06 s⁻¹ and the “self-cleavage kobs at 40 uM GlcN6P” value (glucosamine-6-phosphate [3]) is reported as under 1e-05 s⁻¹.

For AUAAAAGAGCCAGAACUACAGAAAUGUAGUUGACGAGGAGGAGGUUUAUCGAAUUUUCGGCGGAUGCCUUCAAA, the kcat (glucosamine-6-phosphate [1]) was under 1e-05 s⁻¹ and the “self-cleavage kobs at 160 uM GlcN6P” value (glucosamine-6-phosphate [4]) was under 1e-05 s⁻¹.
